These results are taken from patent US20120195831A1 (published 2012).

The target in test [1] is T1, human Her3 receptor on cells (T47D, MCF7) (human, UniProt P21860 20-1342). The test is described as follows: cell-based or functional assay.
For test [2], the target named is T2, Recombinant Human Her3 (Her3/ErbB3 extracellular domain) (human, UniProt P21860 20-643).
T2 construct: Analyte of the BIAcore assay; also called Her3 ECD; human Her3/ErbB3 extracellular domain
The test is described as follows: SPR (BIAcore), Mab captured by anti-IgG Fc on CM5 chip, recombinant human Her3 as analyte, 25 °C. How it is done: All experiments were performed at 25° C. at a flow rate of 40 μl/min. To prepare a BIAcore assay, an anti-human IgG-Fc antibody (50 μg/ml each in acetate buffer, pH 5.0) was immobilized onto a carboxymethyl dextran sensorchip (CM5) using amine coupling procedures as described by the manufacturer. 10000 resonance units (RU) of anti-mouse IgG Fc antibodies were linked respectively onto Flowcells (FC) 1 and 2. Purified Mabs to be tested were diluted at a concentration of 5 μg/ml in 0.5% P20, HBS-EP buffer and injected on FC2 to reach 500 to 1000 RU. FC1 was used as the reference cell. Specific signals correspond to the difference of signals obtained on FC2 versus FC1. The analyte (Recombinant Human Her3, apparent molecular weight 97 kDa) was injected during 90 sec at 5 different concentrations (100, 50, 25, 12.5 and 6.25 nM) in 0.5% P20, HBS-EP buffer. These concentrations were prepared from stock solution in 0.5% P20, HBS-EP. The dissociation phase of the analyte was monitored over a 10 minutes period. Running buffer was also injected under the same conditions as a double reference. After each cycle (antibody+Her3 injection), both Flowcells were regenerated by injecting 20 to 45 μl of Glycine-HCl buffer pH 1.5. This regeneration is sufficient to eliminate all Mabs and Mabs/Her3 complexes captured on the sensorchip. Table 1 listed binding KD for Her3 binding monoclonal antibodies.

The target of test [3] is T3, Her3/Avi/His10 receptor (Homo sapiens (Human), UniProt P21860 20-643, limits assumed).
T3 construct: Soluble tagged receptor of the AlphaScreen assay; The antibodies are called anti-hHer3 there; not shown: Avi tag; His10 tag (ten histidines by its name)
T3 sequence (P21860 20-643 limits assumed): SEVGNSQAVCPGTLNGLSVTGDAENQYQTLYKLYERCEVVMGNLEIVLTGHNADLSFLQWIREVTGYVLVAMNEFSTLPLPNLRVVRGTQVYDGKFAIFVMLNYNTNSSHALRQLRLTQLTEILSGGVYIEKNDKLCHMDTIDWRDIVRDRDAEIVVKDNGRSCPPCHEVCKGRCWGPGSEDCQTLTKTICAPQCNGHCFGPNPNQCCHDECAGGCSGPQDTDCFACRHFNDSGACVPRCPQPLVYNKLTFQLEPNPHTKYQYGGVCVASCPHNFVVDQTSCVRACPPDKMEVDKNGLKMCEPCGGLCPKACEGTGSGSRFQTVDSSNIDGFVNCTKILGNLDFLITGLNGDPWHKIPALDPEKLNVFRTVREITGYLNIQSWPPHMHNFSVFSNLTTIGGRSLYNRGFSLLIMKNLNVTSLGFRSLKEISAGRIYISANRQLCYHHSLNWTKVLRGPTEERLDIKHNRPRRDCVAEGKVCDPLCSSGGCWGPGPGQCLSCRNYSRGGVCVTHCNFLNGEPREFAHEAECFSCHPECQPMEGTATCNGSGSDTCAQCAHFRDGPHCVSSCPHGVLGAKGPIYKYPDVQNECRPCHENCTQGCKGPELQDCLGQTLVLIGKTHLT
Description: AlphaScreen ligand blocking: antibody titrated against 10 nM biotinylated NRG-1 beta and 10 nM Her3/Avi/His10, % signal. How it is done: (§1) SDI or Genovac purified anti-hHer3 Mabs were serially diluted two-fold into an assay buffer made from 25 mM Hepes, 100 mM NaCl, 0.5% BSA and 0.05% Tween20 in an opaque/white, half-well area plate (Costar). Mouse IgG1 antibody was used as a negative control (Southern Biotech; cat #010201). Biotinylated NRG-1 beta ligand and Her3/Avi/His₁₀ receptor were added sequentially at 10 nM concentration to the assay plate containing serially diluted antibodies. This mixture of receptor, ligand and the antibodies was incubated at room temperature with gentle shaking for 90 minutes. AlphaScreen Streptavidin Donor beads and His-Nickel chelate Acceptor beads were added into the assay at a final concentration of 20 μg/ml each. The light sensitive beads were handled under chromagreen filtered light. The assay plates were covered with foil and incubated at room temperature with gentle shaking for 1 hour. The plates were read in PE EnVision plate reader equipped with an Alpha module (dedicated laser for excitation and designed to measure the signal above the well). Table 7 listed IC₅₀ values in ligand blocking that were estimated using four parameter curve fitting with concentration titration graphs (FIGS. 7 A&B).
In general terms: In Alpha technology, singlet oxygen from a donor bead excites a nearby acceptor bead.

Test [4] deals with T1, human Her3 receptor on cells (T47D, …). Description: cell-based or functional assay. This is another data set of the same source.
Test [5] shares this target. Description: cell-based or functional assay. The source holds these as a separate data set.
Test [6] concerns the target T4, Her4 on CHO cells (CHO-Her4) (UniProt Q15303 26-1308, limits assumed).
T4 construct: whole, on cells
Description: FACS on CHO-Her4 cells, purified IgG, R-PE anti-mouse IgG. Here is the method: (§2) CHO-Her2, CHO-Her4, CHO-EGFR cells were harvested and resuspended in PBS, 2% FBS at a concentration of approximately 1×10⁶/ml. Cells were stained with purified IgGs at 4° C. for 40 min. Cells were washed with 4 mL PBS, 2% FBS, then centrifuged at 1200 rpm for 10 minutes. Supernatant was removed. Cells were stained with R-PE conjugated anti-mouse IgG at 4° C. for 30 min. Cells were washed with 4 mL PBS, 2% FBS, then centrifuged at 1200 rpm for 10 minutes. Supernatant was removed and cell pellets were fixed in 1% formaldehyde. Cells were analyzed on a FACS Calibur (BD Biosciences) by collecting 20,000 events from gate 1.

The target in test [7] is T5, EGFR on CHO cells (CHO-EGFR) (UniProt P00533 25-1210, limits assumed).
T5 construct: whole, on cells
The test is described as follows: FACS on CHO-EGFR cells, purified IgG, R-PE anti-mouse IgG. Here is the method:
as §2

Test [8] addresses T3, Her3/Avi/His10 receptor. The test is described as follows: AlphaScreen competition; antibody titrated against 10 nM biotinylated NRG-1 beta and 10 nM Her3/Avi/His10; n = 3. How it is done: as §1
In test [9] the target is T1, human Her3 receptor on cells (T47D, …). Description: cell-based or functional assay. The source holds these as a separate data set.
Test [10] has as its target T6, Her2 on CHO cells (CHO-Her2) (UniProt P04626 23-1255, limits assumed).
T6 construct: whole, on cells
The test is described as follows: FACS on CHO-Her2 cells, purified IgG, R-PE anti-mouse IgG. How it is done: as §2

T2 sequence (P21860 20-643 limits assumed): as above
T1 sequence (P21860 20-1342 limits assumed, stated change not applied): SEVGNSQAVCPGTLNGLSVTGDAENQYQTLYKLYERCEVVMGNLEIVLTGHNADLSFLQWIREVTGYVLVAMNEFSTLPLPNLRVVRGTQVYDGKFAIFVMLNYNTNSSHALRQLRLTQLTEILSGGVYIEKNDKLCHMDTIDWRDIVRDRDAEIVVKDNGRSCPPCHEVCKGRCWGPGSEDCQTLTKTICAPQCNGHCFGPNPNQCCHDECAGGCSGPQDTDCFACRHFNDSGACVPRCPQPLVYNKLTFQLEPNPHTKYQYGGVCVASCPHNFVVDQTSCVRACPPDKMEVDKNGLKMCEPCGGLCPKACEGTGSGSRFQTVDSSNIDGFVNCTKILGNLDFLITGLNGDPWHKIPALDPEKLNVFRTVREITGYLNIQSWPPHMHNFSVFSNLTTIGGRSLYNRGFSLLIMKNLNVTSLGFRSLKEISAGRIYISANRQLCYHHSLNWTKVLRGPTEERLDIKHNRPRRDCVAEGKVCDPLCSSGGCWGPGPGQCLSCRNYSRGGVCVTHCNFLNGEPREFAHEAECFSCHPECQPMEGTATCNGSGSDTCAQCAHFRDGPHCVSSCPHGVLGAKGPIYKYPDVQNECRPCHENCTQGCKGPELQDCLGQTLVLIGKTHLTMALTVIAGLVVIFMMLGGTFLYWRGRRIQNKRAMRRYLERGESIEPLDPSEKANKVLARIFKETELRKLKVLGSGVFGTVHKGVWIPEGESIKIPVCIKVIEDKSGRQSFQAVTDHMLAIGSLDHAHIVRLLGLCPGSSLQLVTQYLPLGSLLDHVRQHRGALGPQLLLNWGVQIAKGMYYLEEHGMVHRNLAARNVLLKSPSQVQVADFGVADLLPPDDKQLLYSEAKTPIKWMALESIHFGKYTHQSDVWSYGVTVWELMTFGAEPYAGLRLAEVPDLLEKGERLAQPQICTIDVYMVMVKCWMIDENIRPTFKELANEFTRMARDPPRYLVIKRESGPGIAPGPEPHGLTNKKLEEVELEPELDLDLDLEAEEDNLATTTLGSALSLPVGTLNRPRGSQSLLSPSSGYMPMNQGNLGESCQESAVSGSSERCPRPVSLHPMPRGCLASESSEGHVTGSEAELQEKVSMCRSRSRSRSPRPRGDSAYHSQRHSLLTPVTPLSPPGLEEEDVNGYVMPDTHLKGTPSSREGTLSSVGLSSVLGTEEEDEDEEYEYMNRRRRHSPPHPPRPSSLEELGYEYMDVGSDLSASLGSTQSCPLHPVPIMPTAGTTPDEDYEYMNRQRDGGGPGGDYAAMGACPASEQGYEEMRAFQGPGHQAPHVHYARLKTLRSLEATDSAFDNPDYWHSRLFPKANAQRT
T4 sequence (Q15303 26-1308 limits assumed): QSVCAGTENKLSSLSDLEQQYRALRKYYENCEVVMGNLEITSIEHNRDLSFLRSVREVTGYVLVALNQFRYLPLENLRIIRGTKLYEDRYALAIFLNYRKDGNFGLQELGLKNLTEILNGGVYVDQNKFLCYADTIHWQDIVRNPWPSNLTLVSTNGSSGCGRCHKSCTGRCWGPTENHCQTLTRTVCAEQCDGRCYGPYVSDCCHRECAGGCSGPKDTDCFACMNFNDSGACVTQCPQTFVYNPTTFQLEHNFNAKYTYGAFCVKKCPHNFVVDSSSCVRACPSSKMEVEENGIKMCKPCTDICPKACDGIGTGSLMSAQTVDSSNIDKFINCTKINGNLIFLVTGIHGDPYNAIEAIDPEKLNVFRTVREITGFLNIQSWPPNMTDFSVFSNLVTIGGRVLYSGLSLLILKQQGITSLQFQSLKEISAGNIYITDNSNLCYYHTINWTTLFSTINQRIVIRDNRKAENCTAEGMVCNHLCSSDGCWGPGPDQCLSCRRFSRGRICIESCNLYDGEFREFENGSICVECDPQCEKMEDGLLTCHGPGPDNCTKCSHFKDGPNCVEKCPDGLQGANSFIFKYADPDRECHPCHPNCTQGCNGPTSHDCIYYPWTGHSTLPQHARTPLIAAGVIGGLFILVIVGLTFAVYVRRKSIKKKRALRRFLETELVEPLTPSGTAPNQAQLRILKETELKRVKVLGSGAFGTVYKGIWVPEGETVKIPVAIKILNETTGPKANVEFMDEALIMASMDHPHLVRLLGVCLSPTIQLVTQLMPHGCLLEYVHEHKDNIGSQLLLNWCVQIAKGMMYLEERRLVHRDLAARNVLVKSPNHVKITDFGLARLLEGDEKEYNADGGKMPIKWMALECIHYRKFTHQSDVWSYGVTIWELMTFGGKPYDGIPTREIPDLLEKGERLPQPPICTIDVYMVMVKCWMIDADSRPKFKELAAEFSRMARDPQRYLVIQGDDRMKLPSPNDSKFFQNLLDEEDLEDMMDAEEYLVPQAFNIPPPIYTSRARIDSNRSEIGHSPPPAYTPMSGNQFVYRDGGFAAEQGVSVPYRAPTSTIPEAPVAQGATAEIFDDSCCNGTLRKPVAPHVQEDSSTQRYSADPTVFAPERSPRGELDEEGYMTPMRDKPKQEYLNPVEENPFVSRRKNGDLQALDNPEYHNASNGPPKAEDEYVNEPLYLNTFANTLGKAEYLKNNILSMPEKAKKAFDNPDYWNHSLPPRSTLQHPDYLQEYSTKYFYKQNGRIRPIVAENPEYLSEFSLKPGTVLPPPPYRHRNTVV

B1: PO-1C9-C4 (antibody, V domains shown)
VH: QVQLQQPGSELVRPGASVKLSCKASGYTFTIFWIHWVKQRPGQGLEWIGNIYPGSGGTNYDEKFKSKATLTVDTFSSTAYMQLSSLTSEDSAVYYCTRWGTGKDYWGQGTTLTVSS
VL: DIVLTQSPAIMSASPGEKVTMTCRARSSVSSSYLHWYQQKPGSSPKLWIYSTSNLALGVPARFSGSGSGTSYSLTISSVEAEDAATYYCQQYDSSPFTFGTGTKLEIKR
notes: Purified mouse IgG from a hybridoma; also called PO-1C9-C4-HC; PO-1C9-C4-LC
As for B1, the “% Receptor Internalization (T47D cells, FACS)” value (shortened to “% Receptor Internalization”) in test [1] turned out to be 41%. Further, in test [2], the equilibrium dissociation constant (Kd) was determined as 2.4 nM. Moreover, the values for the IC50 in test [3] and in test [8] were 2.9 nM and 2.7 nM, respectively. For the same molecule, in test [4], the “IC50 of inhibition of pHer3 (MCF7 cells stimulated with rhNRG1-β1, ELISA)” value (from here on “IC50 of inhibition of pHer3”) amounted to 6.99 nM. Besides, the “IC50 of pAKT inhibition (MCF7 cells stimulated with rhNRG1-β1, ELISA)” value (shortened to “IC50 of pAKT inhibition”) in test [5] was found to be 9.47 nM. In addition, the binding result in [6], in test [7] and in [10] was “no binding” in each case. Further, the “IC50 of pERK inhibition (MCF7 cells stimulated with rhNRG1-β1, MSD)” value (shortened to “IC50 of pERK inhibition”) in [9] was determined as 4.62 nM.

B2: 588E10 (antibody, V domains shown)
VH: EVQLQQSGPKLVGPGESVKISCKGSGYTFTDYGMHWVKQSHAKRLEWIGVITIYDGHTNYNQNFKGKAALTVDKSSNTAYLELARMTSEDSAIYYCARGDYDLFWYLDVWGAGTTLTVSS
VL: DVVMTQTPLSLTVSLGDQASISCRSSQNIKHSDGNTYLEWYLQKPGQSPKLLIYKVSNRFSGVPDRFSGSGSGTDFTLKISRVEAEDLGVYFCFQGSHVPLTFGAGTKLELKR
notes: Purified mouse IgG from a hybridoma; also called 588E10-HC; 588E10-LC
Regarding B2, the “% Receptor Internalization” value in test [1] is 51%. For the same molecule, the Kd in [2] was found to be 3.31 nM. Also, the 50% inhibitory concentration (IC50) in [3] was 2.92 nM; in test [8], 4.9 nM. Moreover, in test [4], the “IC50 of inhibition of pHer3” value turned out to be 90 pM. Moreover, the “IC50 of pAKT inhibition” value in test [5] was 0.14 nM. Besides, the binding result in test [6], in test [7] and in [10] was “no binding” in each case. The “IC50 of pERK inhibition” value in test [9] was determined as 1.72 nM.

B3: 588E14 (antibody, V domains shown)
VH: EVQLQQSGPELVGPGESVKISCKGSGYAFTDYGMHWVKQSHAKRLEWIGVITIYDGHTNYNQNFKGKAALTVDKSSNTAYLELARMTSEDSAIYYCARGDYDLFWYLDVWGAGTSVTVSS
VL: DIVMTQTPLSLTVSLGDQASISCRSSQNIKHSDGNTYLEWYLQKPGQSPKLLIYKVSNRFSGVPDRFSGSGSGTDFTLKISRVEAEDLGVYFCFQGSHVPLTFGAGTKLELKR
notes: Purified mouse IgG from a hybridoma; also called 588E14-HC; 588E14-LC
Turning to B3, the “% Receptor Internalization” value in [1] worked out at 52%. Also, in test [2], the Kd is 3.04 nM. Also, the IC50 in [3] stood at 1.44 nM; in test [8], 2.3 nM. In [4], the “IC50 of inhibition of pHer3” value worked out at 70 pM. Besides, the binding result in test [6], in test [7] and in test [10] was “no binding” throughout. The “IC50 of pERK inhibition” value in test [9] turned out to be 1.82 nM.

B4: 588E22 (antibody, V domains shown)
VH: DVQLQESGPELVGPGESVKISCKGSGYTFTDYGMHWVKQSHAKRLEWIGVITIYDGHTNYNQNFKGKAALTVDKSSNTAYPELARMTSEDSAIYYCARGDYDLFWYLDVWGAGTTVTVSS
VL: DVVMTQTPLSLTVSLGDQASISCRSSQNIKHSDGNTYLEWYLQKPGQSPKLLIYKVSNRFSGVPDRFSGSGSGTDFTLKISRVEAEDLGVYFCFQGSHVPLTFGAGTKLELKR
notes: Purified mouse IgG from a hybridoma; also called 588E22-HC; 588E22-LC
For the molecule B4, the “% Receptor Internalization” value in test [1] came out at 53%. In addition, the dissociation constant Kd in test [2] was 2.78 nM. Moreover, the results for the half-maximal inhibitory concentration (IC50) in test [3] and in test [8] were 2.08 nM and 3.6 nM, respectively. In test [4], the “IC50 of inhibition of pHer3” value came to 90 pM. Moreover, in test [5], the “IC50 of pAKT inhibition” value came to 90 pM. The binding result in test [6], in test [7] and in test [10] was “no binding” in each case. Further, the “IC50 of pERK inhibition” value in test [9] came to 1.44 nM.

B5: 588F7 (antibody, V domains shown)
VH: QVQLQQPGSVLVRPGASVKLSCKASGYTFTNSWILWAKRRPGQGLEWIGEIHPNSGNTNYNEKFKGQATLTVDTSSTTAYVDLSRLTSEDSAVYYCARYEGHWGQGTLVTVSA
VL: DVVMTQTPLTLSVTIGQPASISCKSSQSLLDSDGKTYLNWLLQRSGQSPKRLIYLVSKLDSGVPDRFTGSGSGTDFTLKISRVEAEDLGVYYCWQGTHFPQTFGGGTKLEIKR
notes: Purified mouse IgG from a hybridoma; also called 588F7-HC; 588F7-LC
As to B5, the binding result in test [6], in test [7] and in [10] was “no binding” in each case.

B6: 588F41 (antibody, V domains shown)
VH: EVQLQQSGPELVKPGASVKMSCKASGYTFTSYVMHWVKQKPGQGLEWLGYINPYNDGTKYNEKFKGMATLTSDKSSSTAYMELISLTSEDSAVYYCAREASYGNPFAYWGQGTLVTVSA
VL: DIVMTQSPASLSASVGETVTITCRTSENIYSYLAWFQQKQGNSPQLLVYNTKTLAEGVPSRFSGSGSGTQFSLKINSLQPEDFGNYYCQHHYDTPWTFGGGTKLEIKR
notes: Purified mouse IgG from a hybridoma; also called 588F41-HC; 588F41-LC
As to B6, the “% Receptor Internalization” value in test [1] amounted to 59%. For the same molecule, the equilibrium dissociation constant (Kd) in test [2] came to 3.2 nM. Also, the IC50 in [3] stood at 1.17 nM; in test [8], 4.1 nM. For the same molecule, the “IC50 of inhibition of pHer3” value in test [4] turned out to be 0.66 nM. Besides, in test [5], the “IC50 of pAKT inhibition” value worked out at 2.05 nM. Further, the binding result in [6], in test [7] and in [10] was “no binding” throughout. The “IC50 of pERK inhibition” value in test [9] stood at 4.91 nM.

B7: 588F42 (antibody, V domains shown)
VH: EVQLQQSGPELVKPGASVKMSCKASGYTFTSYVMHWVKQKPGQGLEWLGYINPYNDGTKYNEKFKGKATLTSDKSSSTAYMELISLTSEDSAVYYCAREASYGNPFAYWGQGTLVTVSA
VL: DIVMTQSPASLSASVGETVTITCRTSENIYSYLAWFQQKQGNSPQLLVYNTKTLAEGVPSRFSGSGSGTQFSLKINSLQPEDFGNYYCQHHYDTPWTFGGGTKLEIK
notes: Purified mouse IgG from a hybridoma; also called 588F42-HC; 588F42-LC
Turning to B7, the “% Receptor Internalization” value in [1] stood at 57%. The equilibrium dissociation constant (Kd) in test [2] was found to be 3.8 nM. The IC50 was 3.03 nM in [3] and 4.6 nM in test [8]. In [4], the “IC50 of inhibition of pHer3” value was found to be 1.04 nM. Also, the “IC50 of pAKT inhibition” value in test [5] is 1.36 nM. Further, the binding result in test [6], in [7] and in test [10] was “no binding” throughout. Also, in test [9], the “IC50 of pERK inhibition” value turned out to be 1.8 nM.

Usually Kd stands for the free concentration of one partner at which half of the binding sites on the other are occupied at equilibrium, for simple one-to-one binding. Broadly, the IC50 is the point on the concentration scale where inhibition reaches its midpoint. A low value points to greater potency in that assay.
